Publication PMC12867014, “Angiopoietin-like 3 monomers are abundant in human plasma but are unable to inhibit endothelial lipase” (JCI Insight, 2025)

Experiments:
[1] = molecular target: mouse ANGPTL3 S220A-R221A (cleavage-resistant) (mouse); experiment: mass photometry; Refeyn TwoMP, ambient temperature, DPBS; ANGPTL3 purified from conditioned media by Strep-TactinXT affinity chromatography
[2] = molecular target: mouse ANGPTL3 S220A-R221A (cleavage-resistant) (mouse); experiment: native gel or EMSA; blue NativePAGE (Bis-Tris 3-12% gels, run at room temperature) of conditioned media, immunoblot with an antibody against ANGPTL3
[3] = molecular target: ANGPTL3 of human serum (human (endogenous in serum)); experiment: SEC; Superdex 200 of pooled human serum, alone or spiked with conditioned media of recombinant wild-type or L124A human ANGPTL3 (L124A also run without serum); total ANGPTL3, trimeric ANGPTL3 and ANGPTL3/8 complexes in the fractions measured by dedicated immunoassays
[4] = molecular target: endogenous ANGPTL3 secreted from Huh7 cells (human (endogenous in Huh7)); experiment: native gel or EMSA; blue NativePAGE (Bis-Tris 3-12% gels, run at room temperature) of conditioned media, immunoblot with an antibody against ANGPTL3
[5] = molecular target: Strep-tagged mouse ANGPTL3 (angiopoietin-like 3), wild-type (mouse); experiment: mass photometry; Refeyn TwoMP, ambient temperature, DPBS; ANGPTL3 purified from conditioned media by Strep-TactinXT affinity chromatography
[6] = molecular target: Strep-tagged mouse ANGPTL3 (angiopoietin-like 3), wild-type (mouse); experiment: native gel or EMSA; blue NativePAGE (Bis-Tris 3-12% gels, run at room temperature) of conditioned media, immunoblot with an antibody against ANGPTL3
[7] = Western blot of conditioned media; conditions: glycan lost; control: wild type
[8] = molecular target: the molecule itself; experiment: SEC; Superdex 200 of pooled human serum, alone or spiked with conditioned media of recombinant wild-type or L124A human ANGPTL3 (L124A also run without serum); total ANGPTL3, trimeric ANGPTL3 and ANGPTL3/8 complexes in the fractions measured by dedicated immunoassays

Molecule: mouse ANGPTL3 S220A-R221A (cleavage-resistant) (natural protein)
- stoichiometry N [1]: 3
- stoichiometry N [2]: 3

Molecule: ANGPTL3 of human serum (natural protein)
- stoichiometry N [3]: 3

Molecule: endogenous ANGPTL3 secreted from Huh7 cells (natural protein)
- stoichiometry N [4]: 3

Molecule: Strep-tagged mouse ANGPTL3 (angiopoietin-like 3), wild-type (natural protein)
- percent present as homotrimer [5]: 58%
- stoichiometry N [5]: 3
- stoichiometry N [6]: 3

B1: ANGPTL3: M116A-S117A (protein)
parent chain: MHTIKLFLFVVPLVIASRVDPDLSSFDSAPSEPKSRFAMLDDVKILANGLLQLGHGLKDFVHKTKGQINDIFQKLNIFDQSFYDLSLRTNEIKEEEKELRRTTSTLQVKNEEVKNMSVELNSKLESLLEEKTALQHKVRALEEQLTNLILSPAGAQEHPEVTSLKSFVEQQDNSIRELLQSVEEQYKQLSQQHMQIKEIEKQLRKTGIQEPSENSLSSKSRAPRTTPPLQLNETENTEQDDLPADCSAVYNRGEHTSGVYTIKPRNSQGFNVYCDTQSGSPWTLIQHRKDGSQDFNETWENYEKGFGRLDGEFWLGLEKIYAIVQQSNYILRLELQDWKDSKHYVEYSFHLGSHETNYTLHVAEIAGNIPGALPEHTDLMFSTWNHRAKGQLYCPESYSGGWWWNDICGENNLNGKYNKPRTKSRPERRRGIYWRPQSRKLYAIKSSKMMLQPTT
- expression_or_secretion [7]: no change

B2: recombinant wild-type human ANGPTL3 (His-tagged) (natural protein, UniProt Q9Y5C1 17-460, looked up)
chain: SRIDQDNSSFDSLSPEPKSRFAMLDDVKILANGLLQLGHGLKDFVHKTKGQINDIFQKLNIFDQSFYDLSLQTSEIKEEEKELRRTTYKLQVKNEEVKNMSLELNSKLESLLEEKILLQQKVKYLEEQLTNLIQNQPETPEHPEVTSLKTFVEKQDNSIKDLLQTVEDQYKQLNQQHSQIKEIENQLRRTSIQEPTEISLSSKPRAPRTTPFLQLNEIRNVKHDGIPAECTTIYNRGEHTSGMYAIRPSNSQVFHVYCDVISGSPWTLIQHRIDGSQNFNETWENYKYGFGRLDGEFWLGLEKIYSIVKQSNYVLRIELEDWKDNKHYIEYSFYLGNHETNYTLHLVAITGNVPNAIPENKDLVFSTWDHKAKGHFNCPEGYSGGWWWHDECGENNLNGKYNKPRAKSKPERRRGLSWKSQNGRLYSIKSTKMLIHPTDSESFE
notes: angiopoietin-like 3 (ANGPTL3), human, secreted into the medium; also called WT human ANGPTL3; wild-type trimeric ANGPTL3; source: HEK293T, transient transfection (Fugene6), conditioned media
- stoichiometry N [8]: 3
